Assay results taken from patent US10464987B2.

Assays:
[1] = biological target: SIY peptide on H-2Kb (mouse); test: value stated for 2C in the legend of FIG. 16, no measurement described; given for scTv and full-length constructs alike
[2] = biological target: SIY peptide on H-2Kb (mouse); test: value stated for m33 in the legend of FIG. 16, no measurement described; given for scTv and full-length constructs alike
[3] = biological target: SIY peptide on H-2Kb (mouse); test: value cited from Chervin et al. 2009 (ref 18); not measured in this filing

Row | Substance | Kd [1] [nM] | Kd [2] [nM] | Kd [3] [nM]
1 | 2C full-length TCR | 30000 |  | 
2 | m33 full-length TCR |  | 30 | 16
